For the test, the target named is CD82 (mouse) (mouse, UniProt P40237). Kind of test: IP with anti CD82 antibodies, mouse muscle tissue, mass spectrometry.

B1: ALDOA_MOUSE (enzyme)
chain: PHPYPALTPEQKKELSDIAHRIVAPGKGILAADESTGSIAKRLQSIGTENTEENRRFYRQLLLTADDRVNPCIGGVILFHETLYQKADDGRPFPQVIKSKGGVVGIKVDKGVVPLAGTNGETTTQGLDGLSERCAQYKKDGADFAKWRCVLKIGEHTPSALAIMENANVLARYASICQQNGIVPIVEPEILPDGDHDLKRCQYVTEKVLAAVYKALSDHHVYLEGTLLKPNMVTPGHACTQKFSNEEIAMATVTALRRTVPPAVTGVTFLSGGQSEEEASINLNAINKCPLLKPWALTFSYGRALQASALKAWGGKKENLKAAQEEYIKRALANSLACQGKYTPSGQSGAAASESLFISNHAY
In turn, B1 displayed a Total of 3 and a Unique of 3.

B2: LYZ1_MOUSE (enzyme)
chain: KVYNRCELARILKRNGMDGYRGVKLADWVCLAQHESNYNTRATNYNRGDRSTDYGIFQINSRYWCNDGKTPRSKNACGINCSALLQDDITAAIQCAKRVVRDPQGIRAWVAWRTQCQNRDLSQYIRNCGV
As for B2, the Total was 1 and the Unique was 1.

B3: IGG2B_MOUSE (other)
chain: KTTPPSVYPLAPGCGDTTGSSVTLGCLVKGYFPESVTVTWNSGSLSSSVHTFPALLQSGLYTMSSSVTVPSSTWPSQTVTCSVAHPASSTTVDKKLEPSGPISTINPCPPCKECHKCPAPNLEGGPSVFIFPPNIKDVLMISLTPKVTCVVVDVSEDDPDVQISWFVNNVEVHTAQTQTHREDYNSTIRVVSTLPIQHQDWMSGKEFKCKVNNKDLPSPIERTISKIKGLVRAPQVYILPPPAEQLSRKDVSLTCLVVGFNPGDISVEWTSNGHTEENYKDTAPVLDSDGSYFIYSKLNMKTSKWEKTDSFSCNVRHEGLKNYYLKKTISRSPGK
The molecule B3 had a Total of 1 and a Unique of 1.

B4: QCR2_MOUSE (other)
chain: SLKVAPKVKTSAAPGGVPLQPQDLEFTKLPNGLVIASLENYAPLSRIGLFVKAGSRYEDSNNLGTSHLLRLASSLTTKGASSFKITRGIEAVGGKLSVTATRENMAYTVEGIRSDIEILMEFLLNVTTAPEFRRWEVAALRSQLKIDKAVAFQNSQTRIIENLHDVAYKNALANPLYCPDYRMGKITSEELHYFVQNHFTSARMALVGLGVSHSVLKQVAEQFLNMRGGLGLAGAKAKYRGGEIREQNGDNLVHAAIVAESAAIGNAEANAFSVLQHLLGAGPHIKRGNNTTSLLSQSVAKGSHQPFDVSAFNASYSDSGLFGIYTISQAAAAGEVINAAYNQVKAVAQGNLSSADVQAAKNKLKAGYLMSVETSEGFLSEIGSQALAAGSYMPPSTVLQQIDSVADADVVKAAKKFVSGKKSMAASGNLGHTPFLDEL
B4 registered a Total of 1 and a Unique of 1.

B5: Annexin 2 (mouse) (other)
chain: STVHEILCKLSLEGDHSTPPSAYGSVKPYTNFDAERDALNIETAVKTKGVDEVTIVNILTNRSNVQRQDIAFAYQRRTKKELPSALKSALSGHLETVILGLLKTPAQYDASELKASMKGLGTDEDSLIEIICSRTNQELQEINRVYKEMYKTDLEKDIISDTSGDFRKLMVALAKGRRAEDGSVIDYELIDQDARELYDAGVKRKGTDVPKWISIMTERSVCHLQKVFERYKSYSPYDMLESIKKEVKGDLENAFLNLVQCIQNKPLYFADRLYDSMKGKGTRDKVLIRIMVSRSEVDMLKIRSEFKRKYGKSLYYYIQQDTKGDYQKALLYLCGGDD
On to B5, for which the Total was 1 and the Unique turned out to be 1.

B6: CISY_MOUSE (enzyme)
chain: ASSTNLKDVLSNLIPKEQARIKTFKQQHGKTVVGQITVDMMYGGMRGMKGLVYETSVLDPDEGIRFRGYSIPECQKMLPKAKGGEEPLPEGLFWLLVTGQMPTEEQVSWLSREWAKRAALPSHVVTMLDNFPTNLHPMSQLSAAITALNSESNFARAYAEGMNRAKYWELIYEDCMDLIAKLPCVAAKIYRNLYREGSSIGAIDSRLDWSHNFTNMLGYTDPQFTELMRLYLTIHSDHEGGNVSAHTSHLVGSALSDPYLSFAAAMNGLAGPLHGLANQEVLVWLTQLQKEVGKDVSDEKLRDYIWNTLNSGRVVPGYGHAVLRKTDPRYSCQREFALKHLPKDPMFKLVAQLYKIVPNILLEQGKAKNPWPNVDAHSGVLLQYYGMTEMNYYTVLFGVSRALGVLAQLIWSRALGFPLERPKSMSTDGLMKFVDSK
B6 had a Total of 2 and a Unique of 2.

B7: Annexin 1 (mouse) (other)
chain: AMVSEFLKQARFLENQEQEYVQAVKSYKGGPGSAVSPYPSFNVSSDVAALHKAIMVKGVDEATIIDILTKRTNAQRQQIKAAYLQENGKPLDEVLRKALTGHLEEVVLAMLKTPAQFDADELRGAMKGLGTDEDTLIEILTTRSNEQIREINRVYREELKRDLAKDITSDTSGDFRKALLALAKGDRCQDLSVNQDLADTDARALYEAGERRKGTDVNVFTTILTSRSFPHLRRVFQNYGKYSQHDMNKALDLELKGDIEKCLTTIVKCATSTPAFFAEKLYEAMKGAGTRHKALIRIMVSRSEIDMNEIKVFYQKKYGISLCQAILDETKGDYEKILVALCGGN
In the case of B7, the Total amounted to 2 and the Unique is 2.

B8: Creatine Kinase, Muscle type (enzyme)
chain: not shown
Turning to B8, the Total is 14 and the Unique was 11.

B9: ENOA_MOUSE (enzyme)
chain: SILRIHAREIFDSRGNPTVEVDLYTAKGLFRAAVPSGASTGIYEALELRDNDKTRFMGKGVSQAVEHINKTIAPALVSKKVNVVEQEKIDKLMIEMDGTENKSKFGANAILGVSLAVCKAGAVEKGVPLYRHIADLAGNPEVILPVPAFNVINGGSHAGNKLAMQEFMILPVGASSFREAMRIGAEVYHNLKNVIKEKYGKDATNVGDEGGFAPNILENKEALELLKTAIAKAGYTDQVVIGMDVAASEFYRSGKYDLDFKSPDDPSRYITPDQLADLYKSFVQNYPVVSIEDPFDQDDWGAWQKFTASAGIQVVGDDLTVTNPKRIAKAASEKSCNCLLLKVNQIGSVTESLQACKLAQSNGWGVMVSHRSGETEDTFIADLVVGLCTGQIKTGAPCRSERLAKYNQILRIEEELGSKAKFAGRSFRNPLAK
Regarding B9, the Total came to 2 and the Unique was found to be 2.

B10: PRDX1_MOUSE (enzyme)
chain: SSGNAKIGYPAPNFKATAVMPDGQFKDISLSEYKGKYVVFFFYPLDFTFVCPTEIIAFSDRADEFKKLNCQVIGASVDSHFCHLAWINTPKKQGGLGPMNIPLISDPKRTIAQDYGVLKADEGISFRGLFIIDDKGILRQITINDLPVGRSVDEIIRLVQAFQFTDKHGEVCPAGWKPGSDTIKPDVNKSKEYFSKQK
B10 registered a Total of 3 and a Unique of 2.

B11: FBX50_MOUSE (other)
chain: MEKTQDRDTLSGRMEAEGSLNSEELPPHPQSPPPPPSPRSPTSPVTPELPQPNAPTEVEARQLLVEEWGPLSGKLELPPRISWQLLFLERPLYRNLLSSPNPEGINIYQPAPPTGPTRKPLKELGNFRGWYITTQNLQGPLSWTVKEQCVNLLAKKLWEELLDDEQPDITIMDWFEDSRLDQCVYELHVWLLAADRRTVIAQHHVAPRTNGRGPPGRWIQVSHVFRQYGPGVRFVYFQHKAKNRMEPGGLRRTRVTDSSVSVQLRE
In the case of B11, the Total is 2 and the Unique was 2.

B12: IGHG_RABIT (other)
chain: GQPKAPSVFPLAPCCGDTPSSTVTLGCLVKGYLPEPVTVTWNSGTLTNGVRTFPSVRQSSGLYSLSSVVSVTSSSQPVTCNVAHPATNTKVDKTVAPSTCSKPTCPPPELLGGPSVFIFPPKPKDTLMISRTPEVTCVVVDVSQDDPEVQFTWYINNEQVRTARPPLREQQFNSTIRVVSTLPITHQDWLRGKEFKCKVHNKALPAPIEKTISKARGQPLEPKVYTMGPPREELSSRSVSLTCMINGFYPSDISVEWEKNGKAEDNYKTTPAVLDSDGSYFLYNKLSVPTSEWQRGDVFTCSVMHEALHNHYTQKSISRSPGK
In the case of B12, the Total was found to be 25 and the Unique is 7.

B13: ENOB_MOUSE (enzyme)
chain: AMQKIFAREILDSRGNPTVEVDLHTAKGRFRAAVPSGASTGIYEALELRDGDKARYLGKGVLKAVEHINKTLGPALLEKKLSVVDQEKVDKFMIELDGTENKSKFGANAILGVSLAVCKAGAAEKGVPLYRHIADLAGNPDLVLPVPAFNVINGGSHAGNKLAMQEFMILPVGASSFKEAMRIGAEVYHHLKGVIKAKYGKDATNVGDEGGFAPNILENNEALELLKTAIQAAGYPDKVVIGMDVAASEFYRNGKYDLDFKSPDDPARHISGEKLGELYKNFIQNYPVVSIEDPFDQDDWATWTSFLSGVDIQIVGDDLTVTNPKRIAQAVEKKACNCLLLKVNQIGSVTESIQACKLAQSNGWGVMVSHRSGETEDTFIADLVVGLCTGQIKTGAPCRSERLAKYNQLMRIEEALGDKAVFAGRKFRNPKAK
In turn, B13 gave a Total of 7 and a Unique of 7.

B14: EF1A1_MOUSE (other)
chain: GKEKTHINIVVIGHVDSGKSTTTGHLIYKCGGIDKRTIEKFEKEAAEMGKGSFKYAWVLDKLKAERERGITIDISLWKFETSKYYVTIIDAPGHRDFIKNMITGTSQADCAVLIVAAGVGEFEAGISKNGQTREHALLAYTLGVKQLIVGVNKMDSTEPPYSQKRYEEIVKEVSTYIKKIGYNPDTVAFVPISGWNGDNMLEPSANMPWFKGWKVTRKDGSASGTTLLEALDCILPPTRPTDKPLRLPLQDVYKIGGIGTVPVGRVETGVLKPGMVVTFAPVNVTTEVKSVEMHHEALSEALPGDNVGFNVKNVSVKDVRRGNVAGDSKNDPPMEAAGFTAQVIILNHPGQISAGYAPVLDCHTAHIACKFAELKEKIDRRSGKKLEDGPKFLKSGDAAIVDMVPGKPMCVESFSDYPPLGRFAVRDMRQTVAVGVIKAVDKKAAGAGKVTKSAQKAQKAK
Take B14: the Total is 2 and the Unique came out at 2.

For the origin of these results see patent publication US20220119489A1, “COMPOSITIONS AND METHODS FOR […] […] DYSTROPHY AND RELATED DISORDERS” (CHILDREN'S MEDICAL CENTER CORPORATION, published 2022).
